B1: Flag-PLK4 wt (polo-like kinase 4), full-length [human] / CEP152, endogenous [human (endogenous in HEK293T)] (parent complex)
chain 1: MATCIGEKIEDFKVGNLLGKGSFAGVYRAESIHTGLEVAIKMIDKKAMYKAGMVQRVQNEVKIHCQLKHPSILELYNYFEDSNYVYLVLEMCHNGEMNRYLKNRVKPFSENEARHFMHQIITGMLYLHSHGILHRDLTLSNLLLTRNMNIKIADFGLATQLKMPHEKHYTLCGTPNYISPEIATRSAHGLESDVWSLGCMFYTLLIGRPPFDTDTVKNTLNKVVLADYEMPSFLSIEAKDLIHQLLRRNPADRLSLSSVLDHPFMSRNSSTKSKDLGTVEDSIDSGHATISTAITASSSTSISGSLFDKRRLLIGQPLPNKMTVFPKNKSSTDFSSSGDGNSFYTQWGNQETSNSGRGRVIQDAEERPHSRYLRRAYSSDRSGTSNSQSQAKTYTMERCHSAEMLSVSKRSGGGENEERYSPTDNNANIFNFFKEKTSSSSGSFERPDNNQALSNHLCPGKTPFPFADPTPQTETVQQWFGNLQINAHLRKTTEYDSISPNRDFQGHPDLQKDTSKNAWTDTKVKKNSDASDNAHSVKQQNTMKYMTALHSKPEIIQQECVFGSDPLSEQSKTRGMEPPWGYQNRTLRSITSPLVAHRLKPIRQKTKKAVVSILDSEEVCVELVKEYASQEYVKEVLQISSDGNTITIYYPNGGRGFPLADRPPSPTDNISRYSFDNLPEKYWRKYQYASRFVQLVRSKSPKITYFTRYAKCILMENSPGADFEVWFYDGVKIHKTEDFIQVIEKTGKSYTLKSESEVNSLKEEIKMYMDHANEGHRICLALESIISEEERKTRSAPFFPIIIGRKPGSTSSPKALSPPPSVDSNYPTRERASFNRMVMHSAASPTQAPILNPSMVTNEGLGLTTTASGTDISSNSLKDCLPKSAQLLKSVFVKNVGWATQLTSGAVWVQFNDGSQLVVQAGVSSISYTSPNGQTTRYGENEKLPDYIKQKLQCLSSILLMFSNPTPNFH
chain 2: MSLDFGSVALPVQNEDEEYDEEDYEREKELQQLLTDLPHDMLDDDLSSPELQYSDCSEDGTDGQPHHPEQLEMSWNEQMLPKSQSVNGYNEIQSLYAGEKCGNVWEENRSKTEDRHPVYHPEEGGDEGGSGYSPPSKCEQTDLYHLPENFRPYTNGQKQEFNNQATNVIKFSDPQWNHFQGPSCQGLEPYNKVTYKPYQSSAQNNGSPAQEITGSDTFEGLQQQFLGANENSAENMQIIQLQVLNKAKERQLENLIEKLNESERQIRYLNHQLVIIKDEKDGLTLSLRESQKLFQNGKEREIQLEAQIKALETQIQALKVNEEQMIKKSRTTEMALESLKQQLVDLHHSESLQRAREQHESIVMGLTKKYEEQVLSLQKNLDATVTALKEQEDICSRLKDHVKQLERNQEAIKLEKTEIINKLTRSLEESQKQCAHLLQSGSVQEVAQLQFQLQQAQKAHAMSANMNKALQEELTELKDEISLYESAAKLGIHPSDSEGELNIELTESYVDLGIKKVNWKKSKVTSIVQEEDPNEELSKDEFILKLKAEVQRLLGSNSMKRHLVSQLQNDLKDCHKKIEDLHQVKKDEKSIEVETKTDTSEKPKNQLWPESSTSDVVRDDILLLKNEIQVLQQQNQELKETEGKLRNTNQDLCNQMRQMVQDFDHDKQEAVDRCERTYQQHHEAMKTQIRESLLAKHALEKQQLFEAYERTHLQLRSELDKLNKEVTAVQECYLEVCREKDNLELTLRKTTEKEQQTQEKIKEKLIQQLEKEWQSKLDQTIKAMKKKTLDCGSQTDQVTTSDVISKKEMAIMIEEQKCTIQQNLEQEKDIAIKGAMKKLEIELELKHCENITKQVEIAVQNAHQRWLGELPELAEYQALVKAEQKKWEEQHEVSVNKRISFAVSEAKEKWKSELENMRKNILPGKELEEKIHSLQKELELKNEEVPVVIRAELAKARSEWNKEKQEEIHRIQEQNEQDYRQFLDDHRNKINEVLAAAKEDFMKQKTELLLQKETELQTCLDQSRREWTMQEAKRIQLEIYQYEEDILTVLGVLLSDTQKEHISDSEDKQLLEIMSTCSSKWMSVQYFEKLKGCIQKAFQDTLPLLVENADPEWKKRNMAELSKDSASQGTGQGDPGPAAGHHAQPLALQATEAEADKKKVLEIKDLCCGHCFQELEKAKQECQDLKGKLEKCCRHLQHLERKHKAVVEKIGEENNKVVEELIEENNDMKNKLEELQTLCKTPPRSLSAGAIENACLPCSGGALEELRGQYIKAVKKIKCDMLRYIQESKERAAEMVKAEVLRERQETARKMRKYYLICLQQILQDDGKEGAEKKIMNAASKLATMAKLLETPISSKSQSKTTQSALPLTSEMLIAVKKSKRNDVNQKIPCCIESKSNSVNTITRTLCEQAPKRRAACNLQRLLENSEHQSIKHVGSKETHLEFQFGDGSCKHLNSLPRNVSPEFVPCEGEGGFGLHKKKDLLSDNGSESLPHSAAYPFLGTLGNKPSPRCTPGPSESGCMHITFRDSNERLGLKVYKCNPLMESENAASEKSQGLDVQEPPVKDGGDLSDCLGWPSSSATLSFDSREASFVHGRPQGTLEIPSESVKSKQFSPSGYLSDTEESNMICQTMKCQRYQTPYLSEETTYLEPGKISVNCGHPSRHKADRLKSDFKKLSSTLPSSVCQQPSRKLIVPLSSQQDSGFDSPFVNLD
B2: Flag-PLK4 wt (polo-like kinase 4), full-length [human] / DCAF1 (VprBP), endogenous [human (endogenous in HEK293T)] (parent complex)
chain 1: B1 chain 1
chain 2: not shown
B3: Flag-PLK4 wt (polo-like kinase 4), full-length [human] / CEP192, endogenous [human (endogenous in HEK293T)] (parent complex)
chain 1: B1 chain 1
chain 2: MEDFRGIAEESFPSFLTNSLFGNSGILENVTLSSNLGLPVAVSTLARDRSSTDNRYPDIQASYLVEGRFSVPSGSSPGSQSDAEPRERLQLSFQDDDSISRKKSYVESQRLSNALSKQSALQMETAGPEEEPAGATESLQGQDLFNRASPLEQAQDSPIDFHLQSWMNNKEPKIVVLDAGKHFEDKTLKSDLSHTSLLENEKLILPTSLEDSSDDDIDDEMFYDDHLEAYFEQLAIPGMIYEDLEGPEPPEKGFKLPTNGLRQANENGSLNCKFQSENNSSLISLDSHSSETTHKESEESQVICLPGTSNSIGTGDSRRYTDGMLPFSSGTWGTEKEIENLKGIVPDLNSECASKDVLVKTLRAIDVKLNSDNFHDANANRGGFDLTDPVKQGAECPHQNKTVLHMDGCLDTETPTVSIQENVDVASLKPISDSGINFTDAIWSPTCERRTCECHESIEKNKDKTDLPQSVVYQNEEGRWVTDLAYYTSFNSKQNLNVSLSDEMNEDFRSGSEAFDLIAQDEEEFNKEHQFIQEENIDAHNTSVALGDTSWGATINYSLLRKSRSTSDLDKDDASYLRLSLGEFFAQRSEALGCLGGGNNVKRPSFGYFIRSPEKREPIALIRKSDVSRGNLEKEMAHLNHDLYSGDLNEQSQAQLSEGSITLQVEAVESTSQVDENDVTLTADKGKTEDTFFMSNKPQRYKDKLPDSGDSMLRISTIASAIAEASVNTDPSQLAAMIKALSNKTRDKTFQEDEKQKDYSHVRHFLPNDLEKSNGSNALDMEKYLKKTEVSRYESALENFSRASMSDTWDLSLPKEQTTQDIHPVDLSATSVSVRAPEENTAAIVYVENGESENQESFRTINSSNSVTNRENNSAVVDVKTCSIDNKLQDVGNDEKATSISTPSDSYSSVRNPRITSLCLLKDCEEIRDNRENQRQNECVSEISNSEKHVTFENHRIVSPKNSDLKNTSPEHGGRGSEDEQESFRPSTSPLSHSSPSEISGTSSSGCALESFGSAAQQQQPPCEQELSPLVCSPAGVSRLTYVSEPESSYPTTATDDALEDRKSDITSELSTTIIQGSPAALEERAMEKLREKVPFQNRGKGTLSSIIQNNSDTRKATETTSLSSKPEYVKPDFRWSKDPSSKSGNLLETSEVGWTSNPEELDPIRLALLGKSGLSCQVGSATSHPVSCQEPIDEDQRISPKDKSTAGREFSGQVSHQTTSENQCTPIPSSTVHSSVADMQNMPAAVHALLTQPSLSAAPFAQRYLGTLPSTGSTTLPQCHAGNATVCGFSGGLPYPAVAGEPVQNSVAVGICLGSNIGSGWMGTSSLCNPYSNTLNQNLLSTTKPFPVPSVGTNCGIEPWDSGVTSGLGSVRVPEELKLPHACCVGIASQTLLSVLNPTDRWLQVSIGVLSISVNGEKVDLSTYRCLVFKNKAIIRPHATEEIKVLFIPSSPGVFRCTFSVASWPCSTDAETIVQAEALASTVTLTAIAESPVIEVETEKKDVLDFGDLTYGGWKALPLKLINRTHATVPIRLIINANAVAWRCFTFSKESVRAPVEVAPCADVVTRLAGPSVVNHMMPASYDGQDPEFLMIWVLFHSPKKQISSSDILDSAEEFSAKVDIEVDSPNPTPVLRSVSLRARAGIARIHAPRDLQTMHFLAKVASSRKQHLPLKNAGNIEVYLDIKVPEQGSHFSVDPKNLLLKPGEEHEVIVSFTPKDPEACEERILKIFVQPFGPQYEVVLKGEVISSGSKPLSPGPCLDIPSILSNKQFLAWGGVPLGRTQLQKLALRNNSASTTQHLRLLIRGQDQDCFQLQNTFGSEQRLTSNCEIRIHPKEDIFISVLFAPTRLSCMLARLEIKQLGNRSQPGIKFTIPLSGYGGTSNLILEGVKKLSDSYMVTVNGLVPGKESKIVFSVRNTGSRAAFVKAVGFKDSQKKVLLDPKVLRIFPDKFVLKERTQENVTLIYNPSDRGINNKTATELSTVYLFGGDEISRQQYRRALLHKPEMIKQILPEHSVLQNINFVEAFQDELLVTEVYDLPQRPNDVQLFYGSMCKIILSVIGEFRDCISSREFLQPSSKASLESTSDLGASGKHGGNVSLDVLPVKGPQGSPLLSRAARPPLDQLASEEPWTVLPEHLILVAPSPCDMAKTGRFQIVNNSVRLLRFELCWPAHCLTVTPQHGCVAPESKLQILVSPNSSLSTKQSMFPWSGLIYIHCDDGQKKIVKVQIREDLTQVELLTRLTSKPFGILSPVSEPSVSHLVKPMTKPPSTKVEIRNKSITFPTTEPGETSESCLELENHGTTDVKWHLSSLAPPYVKGVDESGDVFRATYAAFRCSPISGLLESHGIQKVSITFLPRGRGDYAQFWDVECHPLKEPHMKHTLRFQLSGQSIEAENEPENACLSTDSLIKIDHLVKPRRQAVSEASARIPEQLDVTARGVYAPEDVYRFRPTSVGESRTLKVNLRNNSFITHSLKFLSPREPFYVKHSKYSLRAQHYINMPVQFKPKSAGKFEALLVIQTDEGKSIAIRLIGEALGKN

The first test covers variants of B1. Nature of the test: co-immunoprecipitation (IP against Flag tag, Western blot quantification); HEK293T cells, 48 h overexpression, N = 3; read off a plot.
chain 1 I602E: the ratio to parent is approximately 0.03.
Same read-out and setting: the result for chain 1 K699A reads approximately 0.09; that for chain 1 R691A, approximately 0.83.
For chain 1 K608A, the ratio to parent is approximately 0.16.

The variants in the next test derive from B2. The description is as above.
Turning to chain 1 R691A, the ratio to parent was approximately 0.05.
In the case of chain 1 K608A, the ratio to parent was approximately 0.
With chain 1 I602E, the ratio to parent is approximately 0.01.
For the variant chain 1 K699A, the ratio to parent is approximately 0.

Variants of B2 are the subject of the next test. Described as above. This is another data set of the same source.
As for chain 1 K748A, the ratio to parent is approximately 1.5.
As to chain 1 K753A, the ratio to parent was approximately 1.6.

Variants of B2 are the subject of a further test. Described as above. This is another data set of the same source.
As to chain 1 K41R, the ratio to parent was approximately 0.79.
Same read-out and setting: the result for chain 1 S285A, chain 1 T289A reads approximately 0.58.

The variants in the next test derive from B3. The test is described as above.
Regarding chain 1 R691A, the ratio to parent was approximately 1.5.
Consider chain 1 K608A, for which the ratio to parent was approximately 0.1.
Consider chain 1 I602E, for which the ratio to parent was approximately 0.01.
Still for that read-out and setting: the result for chain 1 K699A reads approximately 0.1.

For the origin of these results see PMC10942865 (2024).
